Data taken from patent US20150344570A1 (published 2015).

T1: FcγRIIb, extracellular domain with C-terminal His tag (human, UniProt P31994 43-217)
T1 construct: extracellular domain; made in FreeStyle293 cells; analyte in the Biacore assay; also called 2b; FcgRIIb
T1 sequence (looked up): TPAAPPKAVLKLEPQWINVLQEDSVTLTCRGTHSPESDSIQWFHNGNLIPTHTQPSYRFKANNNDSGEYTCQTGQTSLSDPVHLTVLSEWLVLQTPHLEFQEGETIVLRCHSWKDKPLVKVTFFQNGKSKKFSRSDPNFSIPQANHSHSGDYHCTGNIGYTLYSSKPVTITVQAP

T2: FcγRIIa R (FcγRIIa allotype with Arg at position 131), extracellular domain with C-terminal His tag (human, UniProt P12318 34-217)
T2 construct: extracellular domain; made in FreeStyle293 cells; analyte in the Biacore assay; also called FcγRIIa type R; 2aR
T2 sequence (looked up): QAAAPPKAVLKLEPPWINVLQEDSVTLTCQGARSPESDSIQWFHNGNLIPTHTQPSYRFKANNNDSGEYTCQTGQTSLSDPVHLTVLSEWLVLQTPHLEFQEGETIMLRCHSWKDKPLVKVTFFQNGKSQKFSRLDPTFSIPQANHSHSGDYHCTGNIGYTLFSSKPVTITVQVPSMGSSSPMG


How the values were obtained:
[1] = target: T1, FcγRIIb, extracellular domain with …; experiment: SPR (Biacore), antibody captured, FcγR analyte; vs GpH7-A5/GpH7-B3/GpL16-k0 = 100
Protocol: (§1) The heterodimerized antibodies He Abs in which one of the H chains was introduced with an alteration were assayed for their binding activities to each activating FcγR and inhibitory FcγR according to the method described in Example 4. […] The activating FcγRs in FIGS. 26, 27, 28, and 29 are FcγRIa, FcγRIIa (R), FcγRIIa (H), and FcγRIIIa, respectively.
(§2) Analysis of interaction between objective antibody and the FcγR was carried out using Biacore T100 (GE Healthcare). HBS-EP+ (GE Healthcare) was used as the running buffer, and the measurement temperature was set to 25° C. Chips produced by immobilizing the antigen peptide by the amine coupling method to a Series S Sencor Chip CM5 (GE Healthcare), or alternatively, chips produced by allowing preliminarily biotinylated antigen peptides to interact with and immobilize onto a Series S Sensor Chip SA (certified) (GE Healthcare) were used. Antibodies of interest were captured onto an antigen peptide-immobilized chip, and allowed to interact to each FcγR diluted with running buffer. To regenerate and repeatedly use the chip, the antibodies captured on the chip were washed off by reacting 10 mM glycine-HCl, pH 1.5.

[2] = target: T2, FcγRIIa R (FcγRIIa allotype with Arg at …); experiment: as above
Protocol: as §1, §2

Binder | He/Con_2b [1] | He/Con_2aR [2]
GpH7-A5/GpH7-B3 variant S337_02A/GpL16-k0 (antibody, human IgG1, kappa, heterodimerized IgG1, mutation in one H chain only; also called He Ab) heavy 1: not shown heavy 2: not shown light: DIVMTQSPLSLPVTPGEPASISCQASESLVHSNRNTYLHWYLQKPGQSPQLLIYKVSNRFSGVPDRFSGSGSGTDFTLKISRVEAEDVGVYYCSQNTHVPPTFGQGTKVEIERTVAAPSVFIFPPSDEQLKSGTASVVCLLNNFYPREAKVQWKVDNALQSGNSQESVTEQDSKDSTYSLSSTLTLSKADYEKHKVYACEVTHQGLSSPVTKSFNRGEC | 97.2 relative (HeCon Ab = 100) | 105 relative (HeCon Ab = 100)
GpH7-A5/GpH7-B3 variant T335_12R/GpL16-k0 (antibody, human IgG1, kappa, heterodimerized IgG1, mutation in one H chain only; also called He Ab) heavy 1: not shown heavy 2: not shown light: DIVMTQSPLSLPVTPGEPASISCQASESLVHSNRNTYLHWYLQKPGQSPQLLIYKVSNRFSGVPDRFSGSGSGTDFTLKISRVEAEDVGVYYCSQNTHVPPTFGQGTKVEIERTVAAPSVFIFPPSDEQLKSGTASVVCLLNNFYPREAKVQWKVDNALQSGNSQESVTEQDSKDSTYSLSSTLTLSKADYEKHKVYACEVTHQGLSSPVTKSFNRGEC | 91.9 relative (HeCon Ab = 100) | 100 relative (HeCon Ab = 100)
GpH7-A5/GpH7-B3 variant Y296_09D/GpL16-k0 (antibody, human IgG1, kappa, heterodimerized IgG1, mutation in one H chain only; also called He Ab) heavy 1: not shown heavy 2: not shown light: DIVMTQSPLSLPVTPGEPASISCQASESLVHSNRNTYLHWYLQKPGQSPQLLIYKVSNRFSGVPDRFSGSGSGTDFTLKISRVEAEDVGVYYCSQNTHVPPTFGQGTKVEIERTVAAPSVFIFPPSDEQLKSGTASVVCLLNNFYPREAKVQWKVDNALQSGNSQESVTEQDSKDSTYSLSSTLTLSKADYEKHKVYACEVTHQGLSSPVTKSFNRGEC | 98.9 relative (HeCon Ab = 100) | 106 relative (HeCon Ab = 100)
GpH7-A5/GpH7-B3 variant S337_06M/GpL16-k0 (antibody, human IgG1, kappa, heterodimerized IgG1, mutation in one H chain only; also called He Ab) heavy 1: not shown heavy 2: not shown light: DIVMTQSPLSLPVTPGEPASISCQASESLVHSNRNTYLHWYLQKPGQSPQLLIYKVSNRFSGVPDRFSGSGSGTDFTLKISRVEAEDVGVYYCSQNTHVPPTFGQGTKVEIERTVAAPSVFIFPPSDEQLKSGTASVVCLLNNFYPREAKVQWKVDNALQSGNSQESVTEQDSKDSTYSLSSTLTLSKADYEKHKVYACEVTHQGLSSPVTKSFNRGEC | 96.7 relative (HeCon Ab = 100) | 105 relative (HeCon Ab = 100)
GpH7-A5/GpH7-B3 variant Y296_04F/GpL16-k0 (antibody, human IgG1, kappa, heterodimerized IgG1, mutation in one H chain only; also called He Ab) heavy 1: not shown heavy 2: not shown light: DIVMTQSPLSLPVTPGEPASISCQASESLVHSNRNTYLHWYLQKPGQSPQLLIYKVSNRFSGVPDRFSGSGSGTDFTLKISRVEAEDVGVYYCSQNTHVPPTFGQGTKVEIERTVAAPSVFIFPPSDEQLKSGTASVVCLLNNFYPREAKVQWKVDNALQSGNSQESVTEQDSKDSTYSLSSTLTLSKADYEKHKVYACEVTHQGLSSPVTKSFNRGEC | 99.2 relative (HeCon Ab = 100) | 109 relative (HeCon Ab = 100)
GpH7-A5/GpH7-B3 variant S337_04F/GpL16-k0 (antibody, human IgG1, kappa, heterodimerized IgG1, mutation in one H chain only; also called He Ab) heavy 1: not shown heavy 2: not shown light: DIVMTQSPLSLPVTPGEPASISCQASESLVHSNRNTYLHWYLQKPGQSPQLLIYKVSNRFSGVPDRFSGSGSGTDFTLKISRVEAEDVGVYYCSQNTHVPPTFGQGTKVEIERTVAAPSVFIFPPSDEQLKSGTASVVCLLNNFYPREAKVQWKVDNALQSGNSQESVTEQDSKDSTYSLSSTLTLSKADYEKHKVYACEVTHQGLSSPVTKSFNRGEC | 97.8 relative (HeCon Ab = 100) | 105 relative (HeCon Ab = 100)

Now from value to binder:

He/Con_2b [1] | He/Con_2aR [2] | Binder
99.9 relative (HeCon Ab = 100) | 104 relative (HeCon Ab = 100) | GpH7-A5/GpH7-B3 variant T335_05P/GpL16-k0 (antibody, human IgG1, kappa, heterodimerized IgG1, mutation in one H chain only; also called He Ab) heavy 1: not shown heavy 2: not shown light: DIVMTQSPLSLPVTPGEPASISCQASESLVHSNRNTYLHWYLQKPGQSPQLLIYKVSNRFSGVPDRFSGSGSGTDFTLKISRVEAEDVGVYYCSQNTHVPPTFGQGTKVEIERTVAAPSVFIFPPSDEQLKSGTASVVCLLNNFYPREAKVQWKVDNALQSGNSQESVTEQDSKDSTYSLSSTLTLSKADYEKHKVYACEVTHQGLSSPVTKSFNRGEC
94.3 relative (HeCon Ab = 100) | 103 relative (HeCon Ab = 100) | GpH7-A5/GpH7-B3 variant S337_11K/GpL16-k0 (antibody, human IgG1, kappa, heterodimerized IgG1, mutation in one H chain only; also called He Ab) heavy 1: not shown heavy 2: not shown light: DIVMTQSPLSLPVTPGEPASISCQASESLVHSNRNTYLHWYLQKPGQSPQLLIYKVSNRFSGVPDRFSGSGSGTDFTLKISRVEAEDVGVYYCSQNTHVPPTFGQGTKVEIERTVAAPSVFIFPPSDEQLKSGTASVVCLLNNFYPREAKVQWKVDNALQSGNSQESVTEQDSKDSTYSLSSTLTLSKADYEKHKVYACEVTHQGLSSPVTKSFNRGEC
94 relative (HeCon Ab = 100) | 102 relative (HeCon Ab = 100) | GpH7-A5/GpH7-B3 variant T335_02A/GpL16-k0 (antibody, human IgG1, kappa, heterodimerized IgG1, mutation in one H chain only; also called He Ab) heavy 1: not shown heavy 2: not shown light: DIVMTQSPLSLPVTPGEPASISCQASESLVHSNRNTYLHWYLQKPGQSPQLLIYKVSNRFSGVPDRFSGSGSGTDFTLKISRVEAEDVGVYYCSQNTHVPPTFGQGTKVEIERTVAAPSVFIFPPSDEQLKSGTASVVCLLNNFYPREAKVQWKVDNALQSGNSQESVTEQDSKDSTYSLSSTLTLSKADYEKHKVYACEVTHQGLSSPVTKSFNRGEC
